Test results taken from patent US20150071856A1 (UNIVERSITEIT MAASTRICHT, published 2015).
No end group written: not given here. alkyl = not defined here

B1: Peptide UM207 (linear), Ac-Gly-Ile-Lys-Glu-Cys-Gln-Tyr-Gln-Phe-Arg-His-Arg-Arg-Trp-Asn-Cys-Ser-Thr-Val-Asp-NH2 (peptide)
peptide: Ac-GIKECQYQFRHRRWNCSTVD-NH2
modifications: cysteine pairing not given here
B2: UM208 (peptide)
peptide: GSCSLKTCWLQLAD
B3: Peptide UM206 (linear), Ac-Cys-Asn-Lys-Thr-Ser-Glu-Gly-Met-Asp-Gly-Cys-Glu-Leu-NH2 (peptide)
peptide: Ac-CNKTSEGMDGCEL-NH2
modifications: cysteine pairing not given here
B4: UM206 (5 S = A) (peptide)
peptide: CNKTAEGMDGCEL
B5: UM206 - (label cut short in Table 3; taken as UM206 with the C-terminal Glu-Leu deleted) (peptide)
peptide: CNKTSEGMDGC
B6: UM206 (12 E = A) (peptide)
peptide: CNKTSEGMDGCAL
B7: UM206 (4 T = A, 7 G = A, 9 D = A) (peptide)
peptide: CNKASEAMAGCEL
B8: UM206 (3 K = A) (peptide)
peptide: CNATSEGMDGCEL
B9: UM206 (7 G = A) (peptide)
peptide: CNKTSEAMDGCEL
B10: UM206 (11 C = A) (peptide)
peptide: CNKTSEGMDGAEL
B11: UM206 (C = A) (peptide)
peptide: ANKTSEGMDGAEL
B12: UM206 (8 M = A) (peptide)
peptide: CNKTSEGADGCEL
B13: peptide CNVSSHGIDGCDL (SEQ ID NO: 18), derived from the area of Wnt3a homologous to UM206 (peptide)
peptide: CNVSSHGIDGCDL
B14: UM206 (12-13 EL = AA) (peptide)
peptide: CNKTSEGMDGCAA
B15: UM206 (6 E = A) (peptide)
peptide: CNKTSAGMDGCEL
B16: UM206 (9 D = A) (peptide)
peptide: CNKTSEGMAGCEL
B17: UM206 (C = C-alkyl) (peptide)
peptide: C(alkyl)NKTSEGMDGC(alkyl)EL
modifications: reading uncertain; also: alkyl group not given here
B18: UM206 (C = S) (peptide)
peptide: SNKTSEGMDGSEL
B19: UM206 (10 G = A) (peptide)
peptide: CNKTSEGMDACEL
B20: UM206 (2 N = A) (peptide)
peptide: CAKTSEGMDGCEL
B21: UM206 (1 C = A) (peptide)
peptide: ANKTSEGMDGCEL
B22: UM206 (13 L = A) (peptide)
peptide: CNKTSEGMDGCEA
B23: UM206 (4 T = A) (peptide)
peptide: CNKASEGMDGCEL

molecular target: T1, mouse Fzd-1 (mouse, UniProt O70421 69-642); assay: competition: UM207 (1.10^-7 M) pre-incubated on mouse tissue sections, competitor UM206-rhodamine
T1 construct: whole, on cells; also called frizzled-1 (mouse)
T1 sequence (O70421 69-642): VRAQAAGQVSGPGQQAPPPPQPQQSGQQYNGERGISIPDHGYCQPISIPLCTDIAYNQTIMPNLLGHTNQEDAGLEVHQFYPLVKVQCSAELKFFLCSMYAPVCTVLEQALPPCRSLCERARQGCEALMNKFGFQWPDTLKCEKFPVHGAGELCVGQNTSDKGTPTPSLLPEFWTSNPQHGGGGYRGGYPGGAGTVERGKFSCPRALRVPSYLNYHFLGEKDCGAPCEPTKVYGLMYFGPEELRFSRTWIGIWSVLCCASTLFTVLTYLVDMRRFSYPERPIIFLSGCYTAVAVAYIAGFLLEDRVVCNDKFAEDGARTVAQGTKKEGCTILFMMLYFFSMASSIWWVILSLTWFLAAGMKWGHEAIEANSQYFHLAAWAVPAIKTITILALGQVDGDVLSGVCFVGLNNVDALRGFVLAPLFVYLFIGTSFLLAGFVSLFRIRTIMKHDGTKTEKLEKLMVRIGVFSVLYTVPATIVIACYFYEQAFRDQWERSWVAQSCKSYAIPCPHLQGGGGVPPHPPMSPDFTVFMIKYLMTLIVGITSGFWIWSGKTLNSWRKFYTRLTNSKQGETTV
Protocol: (§1) Specificity of the binding site was confirmed by prior incubation of the tissue sections with UM207 (1.10⁻⁷ M) or recombinant Wnt3a (1.10⁻⁸ M). Both compounds completely abolished the binding of UM206-rhodamine to its receptors.

binding result	Binder
binds	B1

molecular target: T2, mouse Fzd-2 (mouse, UniProt Q9JIP6 29-570); assay: as above
T2 construct: whole, on cells; also called frizzled-2 (mouse)
T2 sequence (Q9JIP6 29-570): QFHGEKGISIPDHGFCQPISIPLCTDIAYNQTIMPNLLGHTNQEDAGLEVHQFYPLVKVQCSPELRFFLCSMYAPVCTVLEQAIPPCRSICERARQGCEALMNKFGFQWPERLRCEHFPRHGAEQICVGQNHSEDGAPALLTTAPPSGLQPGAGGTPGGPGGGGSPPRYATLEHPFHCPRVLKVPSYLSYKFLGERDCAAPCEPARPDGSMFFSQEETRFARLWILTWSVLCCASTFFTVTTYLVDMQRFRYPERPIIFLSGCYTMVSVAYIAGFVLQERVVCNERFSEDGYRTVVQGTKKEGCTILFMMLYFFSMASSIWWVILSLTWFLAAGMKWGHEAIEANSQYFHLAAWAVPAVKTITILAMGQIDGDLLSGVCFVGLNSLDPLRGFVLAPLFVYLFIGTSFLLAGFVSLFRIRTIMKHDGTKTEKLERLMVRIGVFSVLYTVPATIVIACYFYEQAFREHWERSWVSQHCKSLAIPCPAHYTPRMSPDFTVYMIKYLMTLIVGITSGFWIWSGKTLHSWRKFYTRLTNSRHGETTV
Protocol: as §1

binding result	Binder
binds	B1

molecular target: T3, rFzd-2 (frizzled-2 receptor) (rat, UniProt Q08464 29-570); assay: cell-based or functional assay
T3 sequence (Q08464 29-570): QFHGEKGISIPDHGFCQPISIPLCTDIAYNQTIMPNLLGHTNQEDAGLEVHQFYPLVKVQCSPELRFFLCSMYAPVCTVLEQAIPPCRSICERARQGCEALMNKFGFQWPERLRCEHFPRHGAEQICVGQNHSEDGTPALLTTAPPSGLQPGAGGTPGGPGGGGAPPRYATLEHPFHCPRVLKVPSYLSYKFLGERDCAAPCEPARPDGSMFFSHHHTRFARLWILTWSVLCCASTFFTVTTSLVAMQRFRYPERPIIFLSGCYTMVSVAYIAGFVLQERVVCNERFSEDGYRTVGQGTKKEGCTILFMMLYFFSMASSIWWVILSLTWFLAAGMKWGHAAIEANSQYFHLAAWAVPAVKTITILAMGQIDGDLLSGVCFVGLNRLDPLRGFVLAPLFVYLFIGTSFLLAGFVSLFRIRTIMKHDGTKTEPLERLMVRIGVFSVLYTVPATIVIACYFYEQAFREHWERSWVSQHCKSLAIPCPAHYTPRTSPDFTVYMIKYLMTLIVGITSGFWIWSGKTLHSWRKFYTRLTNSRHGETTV

IC50, inhibition of Wnt3a (10^-9 M)-induced luciferase, HEK293-superTOPflash, single binding site fit [nM]	IC50, inhibition of Wnt3a (10^-9 M)-induced luciferase, HEK293-superTOPflash, two-binding-state fit [nM]	affinity ratio against rFzd-1, from reporter IC50 values [fold]	Binder
2110	–	–	B2
–	0.0169	~100	B3
15.2	–	–	B1

molecular target: T4, rFzd-1 (frizzled-1 receptor) (rat, UniProt Q08463 69-641); assay: cell-based or functional assay
T4 sequence (Q08463 69-641): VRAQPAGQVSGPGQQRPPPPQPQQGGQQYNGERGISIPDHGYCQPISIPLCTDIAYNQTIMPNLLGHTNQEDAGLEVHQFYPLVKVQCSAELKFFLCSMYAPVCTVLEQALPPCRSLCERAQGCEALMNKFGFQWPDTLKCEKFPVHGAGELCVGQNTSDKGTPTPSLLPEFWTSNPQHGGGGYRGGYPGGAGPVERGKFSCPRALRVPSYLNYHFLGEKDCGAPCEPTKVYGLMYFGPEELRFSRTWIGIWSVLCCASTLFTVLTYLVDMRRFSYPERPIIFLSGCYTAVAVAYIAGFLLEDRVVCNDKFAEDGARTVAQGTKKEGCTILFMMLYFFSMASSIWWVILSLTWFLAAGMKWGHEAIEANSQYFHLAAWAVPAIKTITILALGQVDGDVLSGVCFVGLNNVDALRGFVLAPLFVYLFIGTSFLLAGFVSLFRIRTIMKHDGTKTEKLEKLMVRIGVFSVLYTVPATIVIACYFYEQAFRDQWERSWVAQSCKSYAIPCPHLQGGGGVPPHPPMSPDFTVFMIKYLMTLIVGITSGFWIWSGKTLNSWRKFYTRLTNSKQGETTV

IC50, inhibition of Wnt3a (10^-9 M)-induced luciferase, HEK293-superTOPflash, single binding site fit [nM]	IC50, inhibition of Wnt3a (10^-9 M)-induced luciferase, HEK293-superTOPflash, two-binding-state fit [nM]	Binder
2060	–	B2
–	2.1	B3
40	–	B1

molecular target: T3, rFzd-2 (frizzled-2 receptor); assay: cell-based or functional assay; remark: another data set of the same source

% of inhibition of Wnt3a-induced luciferase activity (peptide at 1.10^-9 M) [%]	Binder
87.3	B4
61.2	B5
85.5	B6
17.5	B7
84.9	B8
63.1	B9
84.9	B10
8.39	B11
85	B12
62.4	B13
74.3	B14
84.7	B15
60.5	B16
75.1	B3
12.4	B17
17	B18
83.3	B19
79.5	B20
82.6	B21
86.5	B22
59.4	B23

molecular target: T4, rFzd-1 (frizzled-1 receptor); assay: cell-based or functional assay; remark: another data set of the same source

% of inhibition of Wnt3a-induced luciferase activity (peptide at 1.10^-9 M) [%]	Binder
74.3	B4
18	B5
65.9	B6
11.2	B7
70.8	B8
52.6	B9
67.2	B10
0	B11
67.6	B12
45.3	B13
66.8	B14
70.8	B15
40.5	B16
72.2	B3
1	B17
0	B18
69.9	B19
68	B20
70.8	B21
65.9	B22
28.1	B23
